# Experimental data: the supplement of paper PMC12042874
# ± gives the uncertainty stated by the source.
# Test: amyloid nucleation score (Sup35N fusion, yeast selection) (log enrichment); library NNK3; higher = more nucleation; inactive = no reads after selection
# In short: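 Output and input plasmid inserts were sequenced by Illumina after psi-negative yeast carrying Sup35N fused to peptides of 20 random codons had been induced 24 hours with 100 μM copper sulfate and grown 7 days at 30°C on medium lacking adenine and uracil. The nucleation score is the DiMSum log enrichment of output over input reads, centred on the mode score of non-aggregating sequences. Sequences with under 100 input reads were excluded.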
row,Substance,amyloid nucleation score
1,VCQESPSEIGES,inactive
2,VCRDSVILLDLLGAMCVVYG,inactive
3,VCRFPRFFWTCYSDVLHCFS,inactive
4,VCTVQCFEKIEL,inactive
5,VDEYVLWVSYYPWWYRVNTV,inactive
6,VDFLCNPWVERINGYVWEVV,inactive
7,VDINRFMEPLSCVRCCDDSC,inactive
8,VDKWDCLSYSNIVGLMRLDV,inactive
9,VDLGRWFSSGFVWLGYKDIF,inactive
10,VDNHAFKAFKHLGSSLMADR,inactive
11,VDNHPDFFLNLESVLINVDH,inactive
12,VDSILAMGRGAYVID,inactive
13,VDSWSRGQVSQLGRSQWADI,0.68 ± 0.31
14,VDVERIQFRSICLCLSTFCV,1.53 ± 0.081
15,VDVLFC,inactive
16,VDVQVINLAFETFECCAFIK,0.82 ± 0.16
17,VDVYLDYDIAMQPGVYALWR,inactive
18,VEDKCVWFV,inactive
19,VEMATKLQVKVIERALNEGD,inactive
20,VENRYVIINSRVMGD,inactive
21,VEPRWNRLVGNHVCSFDGNV,inactive
22,VEPYRVLYRNGR,inactive

row,Substance,amyloid nucleation score
1,VESRRRLRVEVGFSRVDT,0.077 ± 0.79
2,VFEDNDLCELINDVILEHHR,inactive
3,VFFTHATVLSKSYFNLERLV,0.426 ± 0.33
4,VFHWSKLSFVEYHGKCGRSS,inactive
5,VFIKLPVRSS,-0.192 ± 0.96
6,VFIPVASVIKWGSFKP,0.65 ± 0.21
7,VFKFALFTGTLLWLDHCVVS,1.51 ± 0.14
8,VFLSAVAGDYIV,inactive
9,VFLSIMSSFEWALYLL,inactive
10,VFRAGILESWHRWEGLGVVL,inactive
11,VFRAGWPVWALDYELYSVRA,inactive
12,VFSNSGAETVLGLSKGWSDV,-0.542 ± 0.96
13,VFTNGRSYISRMISYYKYCR,inactive
14,VFTYCYVFHQVVSLRQARLR,inactive
15,VFVMPDDNVC,inactive
16,VGAKRFPYVYWAYGSYVFAD,inactive
17,VGCLGGRSTSSRWSSLRLLV,inactive
18,VGFCNGIGVVMGRPAKCSWR,-0.06 ± 1.1
19,VGFKSCS,inactive
20,VGFPESPFDSLCAMCALQWV,inactive
21,VGIIVFLIAFHYYKRSMYWD,inactive
22,VGLIRCLVDVKLI,inactive

row,Substance,amyloid nucleation score
1,VGLNQSLNRWPTSSSQHMGG,inactive
2,VGNFLTLSVWDNSGRRIGEE,0.705 ± 0.19
3,VGNFTWICKI,2.48 ± 0.056
4,VGNNWS,inactive
5,VGQTCFTIMMVV,inactive
6,VGRHDNGVSDFAMTSSWVFF,inactive
7,VGRNECARRMVLRKWWLYLV,inactive
8,VGTDDVIICILSVKFPLIRP,inactive
9,VGVSISLSRARWGQIAMEET,1.05 ± 0.2
10,VHGKWIDRRYNVISRPLGGG,inactive
11,VHLSRWYVN,inactive
12,VHVYFRLADL,1.3 ± 0.14
13,VHYGNGLRWLGSLVYMGGCI,inactive
14,VICFAARALVYC,inactive
15,VICIKEEEG,inactive
16,VIDEYQSVICGYLIRGWHAS,1.79 ± 0.088
17,VIDVFSRDLSMLIFSFGHMK,1.12 ± 0.089
18,VIGVCFSKFWWNTHDTRSDS,0.665 ± 0.23
19,VIKTLVSWTYISCRLN,inactive
20,VIKTTNNQ,1.09 ± 0.11
21,VILATAYLASNLYPVCSLIS,inactive
